The record followed here is article PMC6888640, “Key Factors for a One-Pot Enzyme Cascade Synthesis of High Molecular Weight Hyaluronic Acid” (International Journal of Molecular Sciences, 2019).

Data set [1] has as its target T1, AtGlcAK (Arabidopsis thaliana, UniProt Q93ZC9).
T1 construct: gene GLCAK1
T1 sequence (Q93ZC9 1-362): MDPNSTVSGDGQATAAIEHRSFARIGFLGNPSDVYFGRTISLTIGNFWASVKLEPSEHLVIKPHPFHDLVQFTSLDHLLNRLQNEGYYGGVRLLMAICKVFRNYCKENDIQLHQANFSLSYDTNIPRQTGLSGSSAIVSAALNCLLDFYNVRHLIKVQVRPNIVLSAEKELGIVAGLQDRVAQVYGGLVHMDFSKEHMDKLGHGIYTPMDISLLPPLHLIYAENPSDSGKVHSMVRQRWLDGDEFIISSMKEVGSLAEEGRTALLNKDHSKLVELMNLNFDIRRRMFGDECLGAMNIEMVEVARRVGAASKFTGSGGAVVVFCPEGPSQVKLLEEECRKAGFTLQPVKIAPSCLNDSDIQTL
Conditions: substrate inhibition; 5 mM GlcA, 5 mM MgCl2, 100 mM HEPES pH 7.5, 25 °C.

Substrate in data set [2]: Nc1ncnc2c1ncn2[C@@H]1O[C@H](COP(=O)(O)OP(=O)(O)OP(=O)(O)O)[C@@H](O)[C@H]1O
As to the kind of experiment: purified protein. To be noted: apparent, substrate-inhibition fit, 5 mM GlcA, 5 mM MgCl2, 100 mM HEPES pH 7.5, 25 °C.

Substrate in data set [3]: O=P(O)(O)O[C@H]1O[C@H](CO)[C@@H](O)[C@H](O)[C@H]1O
Kind of data set: initial rates by multiplexed capillary electrophoresis; Michaelis-Menten fit. The format is biochemical, Arabidopsis thaliana. Conditions: 5 mM UTP, 15 mM MgCl2, 100 mM HEPES pH 8, 25 °C. An excerpt:
(§1) initial rates by multiplexed capillary electrophoresis; Michaelis-Menten fit on AtUSP

Substrate in data set [4]: O=c1ccn([C@@H]2O[C@H](COP(=O)(O)OP(=O)(O)OP(=O)(O)O)[C@@H](O)[C@H]2O)c(=O)[nH]1
The data set is described as above. The format is biochemical, Arabidopsis thaliana. Conditions: 5 mM Glc-1-P, 15 mM MgCl2, 100 mM HEPES pH 8, 25 °C.
From the text: as §1

Molecule `Nc1ncnc2c1ncn2[C@@H]1O[C@H](COP(=O)(O)OP(=O)(O)OP(=O)(O)O)[C@@H](O)[C@H]1O` [ATP] returned an AtGlcAK in data set [1] of 2.87 mM.

B1: AtGlcAK (Arabidopsis thaliana) (protein)
chain: MDPNSTVSGDGQATAAIEHRSFARIGFLGNPSDVYFGRTISLTIGNFWASVKLEPSEHLVIKPHPFHDLVQFTSLDHLLNRLQNEGYYGGVRLLMAICKVFRNYCKENDIQLHQANFSLSYDTNIPRQTGLSGSSAIVSAALNCLLDFYNVRHLIKVQVRPNIVLSAEKELGIVAGLQDRVAQVYGGLVHMDFSKEHMDKLGHGIYTPMDISLLPPLHLIYAENPSDSGKVHSMVRQRWLDGDEFIISSMKEVGSLAEEGRTALLNKDHSKLVELMNLNFDIRRRMFGDECLGAMNIEMVEVARRVGAASKFTGSGGAVVVFCPEGPSQVKLLEEECRKAGFTLQPVKIAPSCLNDSDIQTL
Take B1: in data set [2], the Km (commonly the substrate concentration at which the rate is half of its maximum) was found to be 8560 µM.

B2: AtUSP (Arabidopsis thaliana) (protein)
chain: ASTVDSNFFSSVPALHSNLGLLSPDQIELAKILLENGQSHLFQQWPELGVDDKEKLAFFDQIARLNSSYPGGLAAYIKTAKELLADSKVGKNPYDGFSPSVPSGENLTFGTDNFIEMEKRGVVEARNAAFVLVAGGLGERLGYNGIKVALPRETTTGTCFLQHYIESILALQEASNKIDSDGSERDIPFIIMTSDDTHSRTLDLLELNSYFGMKPTQVHLLKQEKVACLDDNDARLALDPHNKYSIQTKPHGHGDVHSLLYSSGLLHKWLEAGLKWVLFFQDTNGLLFNAIPASLGVSATKQYHVNSLAVPRKAKEAIGGISKLTHVDGRSMVINVEYNQLDPLLRASGFPDGDVNCETGFSPFPGNINQLILELGPYKDELQKTGGAIKEFVNPKYKDSTKTAFKSSTRLECMMQDYPKTLPPTARVGFTVMDIWLAYAPVKNNPEDAAKVPKGNPYHSATSGEMAIYRANSLILQKAGVKVEEPVKQVLNGQEVEVWSRITWKPKWGMIFSDIKKKVSGNCEVSQRSTMAIKGRNVFIKDLSLDGALIVDSIDDAEVKLGGLIKNNGWTMESVDYKDTSVPEEIRIRGFRFNKVEQLEKKLTQPGKFSVED
notes: full-length synthetic codon-optimized gene, pET-16b(+), N-terminal His10 tag, E. coli BL21(DE3), IMAC
In the case of B2, the Km is 580 µM in data set [3] and 440 µM in data set [4].
